Assay results reported in patent publication US20240269271A1.

Columns and labels:
HVEM [1] = test: competition ELISA, plates coated with BTLA, HVEM binding read out
HVEM [2] = test: competition ELISA, plates coated with BTLA, HVEM binding read out; control protein

commercially available gD protein (ligand)
percent inhibition of HVEM binding to BTLA (HVEM [1]): 90%

sequence of the V2 loop of HIV envelope linked to a His-tag
percent inhibition of HVEM binding to BTLA (HVEM [2]): 45%
